Data as given in patent US20260125477A1 (BEIJING MABWORKS BIOTECH, published 2026).

T1: recombinant human CD80 protein (human B7-1/CD80 protein, with His tag) (human, UniProt P33681 35-242)
T1 construct: Bought protein
T1 sequence (looked up): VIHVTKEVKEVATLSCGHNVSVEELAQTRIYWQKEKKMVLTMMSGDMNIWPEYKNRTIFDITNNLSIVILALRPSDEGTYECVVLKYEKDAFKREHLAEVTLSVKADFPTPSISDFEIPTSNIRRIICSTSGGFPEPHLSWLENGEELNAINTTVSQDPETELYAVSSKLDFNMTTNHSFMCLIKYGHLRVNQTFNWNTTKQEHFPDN

T2: human B7-2/CD86 protein, with His tag (human, UniProt P42081 26-247, limits assumed)
T2 construct: Bought protein
T2 sequence (looked up): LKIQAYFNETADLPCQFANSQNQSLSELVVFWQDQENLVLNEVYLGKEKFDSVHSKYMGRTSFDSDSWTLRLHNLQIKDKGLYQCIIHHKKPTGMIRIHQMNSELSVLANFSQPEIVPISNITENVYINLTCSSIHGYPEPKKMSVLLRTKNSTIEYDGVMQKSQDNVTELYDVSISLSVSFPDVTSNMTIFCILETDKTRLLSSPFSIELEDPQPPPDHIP

T3: human PD-L2/B7-DC protein, with His tag (human, UniProt Q9BQ51 20-219, limits assumed)
T3 construct: Bought protein
T3 sequence (looked up): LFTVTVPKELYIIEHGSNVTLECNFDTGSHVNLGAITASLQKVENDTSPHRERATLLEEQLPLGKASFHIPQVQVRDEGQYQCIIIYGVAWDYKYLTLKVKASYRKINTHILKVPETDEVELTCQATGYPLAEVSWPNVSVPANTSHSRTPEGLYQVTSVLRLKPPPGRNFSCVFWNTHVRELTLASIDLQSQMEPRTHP

T4: human B7-H2/ICOSLG protein, with His tag (human, UniProt O75144 19-258, limits assumed)
T4 construct: Bought protein
T4 sequence (looked up): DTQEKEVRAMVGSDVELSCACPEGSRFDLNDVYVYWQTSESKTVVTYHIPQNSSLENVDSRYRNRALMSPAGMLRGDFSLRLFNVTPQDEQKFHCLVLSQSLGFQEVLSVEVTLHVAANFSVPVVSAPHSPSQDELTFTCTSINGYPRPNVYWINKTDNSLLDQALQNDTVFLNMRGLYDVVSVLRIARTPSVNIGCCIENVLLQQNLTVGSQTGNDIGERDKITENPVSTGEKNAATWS

T5: human B7-H4 protein, with His tag (MALS verified) (human, UniProt Q7Z7D3 29-258, limits assumed)
T5 construct: Bought protein
T5 sequence (looked up): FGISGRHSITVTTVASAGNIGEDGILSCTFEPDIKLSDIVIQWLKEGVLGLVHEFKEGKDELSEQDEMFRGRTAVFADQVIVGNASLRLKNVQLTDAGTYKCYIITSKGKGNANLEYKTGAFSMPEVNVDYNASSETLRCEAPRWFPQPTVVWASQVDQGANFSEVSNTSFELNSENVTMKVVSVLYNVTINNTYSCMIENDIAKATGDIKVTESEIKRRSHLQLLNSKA

T6: human B7-H5/Gi24/VISTA protein, with His tag (MALS verified) (human, UniProt Q9H7M9 33-194)
T6 construct: Bought protein
T6 sequence (looked up): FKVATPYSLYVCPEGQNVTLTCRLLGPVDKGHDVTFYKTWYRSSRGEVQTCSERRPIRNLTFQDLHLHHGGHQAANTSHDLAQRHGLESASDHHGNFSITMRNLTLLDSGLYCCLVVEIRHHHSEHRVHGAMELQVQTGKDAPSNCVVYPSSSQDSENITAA

T7: human B7-H7/HHLA2 protein, with His tag (MALS verified) (human, UniProt Q9UM44 23-344, limits assumed)
T7 construct: Bought protein
T7 sequence (looked up): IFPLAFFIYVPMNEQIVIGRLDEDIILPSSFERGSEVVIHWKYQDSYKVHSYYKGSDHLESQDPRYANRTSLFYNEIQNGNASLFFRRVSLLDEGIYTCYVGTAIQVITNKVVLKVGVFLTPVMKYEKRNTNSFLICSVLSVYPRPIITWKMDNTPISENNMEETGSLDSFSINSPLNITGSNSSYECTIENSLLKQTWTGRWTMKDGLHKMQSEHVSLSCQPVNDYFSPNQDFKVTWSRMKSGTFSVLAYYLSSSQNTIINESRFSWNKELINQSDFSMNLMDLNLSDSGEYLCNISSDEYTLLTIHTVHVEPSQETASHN

T8: recombinant human B7-H3 (4Ig) protein, with His tag (human, UniProt Q5ZPR3 29-461, limits assumed)
T8 construct: Bought protein; also called human B7-H3 (4Ig)/B7-H3b protein
T8 sequence (looked up): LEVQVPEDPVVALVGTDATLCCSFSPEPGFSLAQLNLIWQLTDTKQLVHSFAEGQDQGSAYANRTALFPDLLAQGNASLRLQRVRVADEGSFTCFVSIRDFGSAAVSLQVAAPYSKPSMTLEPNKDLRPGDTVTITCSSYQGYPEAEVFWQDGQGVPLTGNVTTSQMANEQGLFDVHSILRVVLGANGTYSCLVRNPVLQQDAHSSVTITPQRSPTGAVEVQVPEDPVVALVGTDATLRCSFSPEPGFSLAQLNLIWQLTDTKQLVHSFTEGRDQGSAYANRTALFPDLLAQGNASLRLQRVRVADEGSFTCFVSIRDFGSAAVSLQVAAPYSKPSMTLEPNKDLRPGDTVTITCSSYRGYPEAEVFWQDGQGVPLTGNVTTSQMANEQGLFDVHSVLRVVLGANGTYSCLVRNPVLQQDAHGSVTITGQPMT


Tests used:
Experiment in all cases: SPR (Biacore T200), antibody captured on Protein A chip, response at 200 nM antigen
[1] = biological target: T1, recombinant human CD80 protein (human …)
Method: (§1) The anti-human B7-H3 antibodies were tested for their binding capability to B7 family proteins by SPR using Biacore T200 biosensor (Biacore, US) provided with a pre-fixed Protein A sensor chip.
(§2) The dissociation was monitored for 600 sec. The data was analyzed using Biacore 8k evaluation software version 3.0, to obtain the binding responses, and the protein concentration-binding response curves were plotted, to determine the cross-reaction of the anti-human B7-H3 antibodies to the B7 family proteins.

[2] = biological target: T2, human B7-2/CD86 protein, with His tag
Method: as §1, §2

[3] = biological target: T3, human PD-L2/B7-DC protein, with His tag
Method: as §1, §2

[4] = biological target: T4, human B7-H2/ICOSLG protein, with His tag
Method: as §1, §2

[5] = biological target: T5, human B7-H4 protein, with His tag (MALS …)
Method: as §1, §2

[6] = biological target: T6, human B7-H5/Gi24/VISTA protein, with …
Method: as §1, §2

[7] = biological target: T7, human B7-H7/HHLA2 protein, with His tag …
Method: as §1, §2

[8] = biological target: T8, recombinant human B7-H3 (4Ig) protein, …
Method: as §1, §2

Row | Response (RU) [1] [RU] | Response (RU) [2] [RU] | Response (RU) [3] [RU] | Response (RU) [4] [RU] | Response (RU) [5] [RU] | Response (RU) [6] [RU] | Response (RU) [7] [RU] | Response (RU) [8] [RU] | Binder
1 | 0.6 | 0.3 | -0.2 | 0.9 | 0.5 | 0.9 | 1.3 | 34.8 | 6B5 (antibody, human IgG1, kappa, V domains shown, also called 6B5-WT; Ab6B5) VH: QVQLVESGPGLVKPSQTLSLTCTVSDGSISSGGYYWSWIRQHPGKGLEWIGYIYYSGGTYYSPSLKSRVTISVDTSKNQFSLKLTSVTAADTAVYYCARRAGYSSSFDSWGQGILVTVSS VL: EIVLTQSPLSLPVTPGEPASISCRSSQSLLYSNGYTYLDWYLQKPGQSPQFLIYLGFNRASGVPDRFSGSGSGTDFTLKISRVEAEDVGVYYCMQGLQTPYTFGQGTKLEIKR
2 | 0.2 | -0.2 | -0.2 | -0.1 | 0.3 | 0.6 | 0.2 | 41.9 | 10D7 (antibody, human IgG1, kappa, V domains shown, also called 10D7-WT; Ab10D7) VH: QVQLVQSGPGLVKPSETLSLTCTVSGGSISRSSYYWGWIRQPPGKGLEWIGNIFYAGSTYYNPSLKSRVTISVDTSKNQFSLKLSSVTAADTAVYYCARRITGTTGWFDPWGQGTLVTVSS VL: DIQLTQSPSSLSASVGDRVTITCRASQGIRNDLGWYQQKPGKAPKLLIYAASTLQSGVPSRFSGSGSGTDFTLTISSLQPEDFATYYCLQDYNYPRTFGQGTKVEIKR
3 | 0.7 | 0.5 | 0 | 0.9 | 0.3 | 0.6 | 1.7 | 32.5 | 10F5 (antibody, human IgG1, kappa, V domains shown, also called Ab10F5) VH: QVQLVQSGAEVKKPGSSVKVSCKASGGTFSSQAISWVRQAPGQGLEWMGRIIPMLGIGDYAQSFQGRVTITADKSTSTAYLEVSSLGSEDTAVYYCAREGIAALGTNYYYGMDVWGQGTAVTVSS VL: EIVMTQSPSSVSASVGDRVTITCRASQGISRWLAWYQQKPGKAPKLLIYVASSLQSGVPSRFSGSGSGTDFTLTISSLQPEDFATYYCQQANSFPFTFGPGTKVDIRR
4 | -1.8 | -1.5 | -1.2 | -2 | -2 | -1.8 | -1.3 | 25.7 | Enoblituzumab (antibody, human IgG1, kappa, V domains shown, Humanized anti-B7-H3 antibody of MacroGenics with optimised Fc, used as the positive control; also called AbEno; enoblituzumab-IgG1-Mut) VH: EVQLVESGGGLVQPGGSLRLSCAASGFTFSSFGMHWVRQAPGKGLEWVAYISSDSSAIYYADTVKGRFTISRDNAKNSLYLQMNSLRDEDTAVYYCGRGRENIYYGSRLDYWGQGTTVTVSS VL: DIQLTQSPSFLSASVGDRVTITCKASQNVDTNVAWYQQKPGKAPKALIYSASYRYSGVPSRFSGSGSGTDFTLTISSLQPEDFATYYCQQYNNYPFTFGQGTKLEIKR
